Each block holds one binder with its values, some of them ahead of it.
What was measured:
Assay in all cases: holdup assay
Set-up in all cases: key: below the threshold = too weak to quantify, mostly under pKd 3.1 to 4
HTRA4, P83105 = biological target: T1, HTRA4, P83105
T1 sequence (P83105 378-476, limits assumed, looked up): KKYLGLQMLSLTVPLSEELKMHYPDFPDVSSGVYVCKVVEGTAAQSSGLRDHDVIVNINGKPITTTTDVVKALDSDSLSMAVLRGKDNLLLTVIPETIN

TJP2_1, Q9UDY2 = biological target: TJP2_1, Q9UDY2
PDZRN3_1, Q9UPQ7 = biological target: T2, PDZRN3_1, Q9UPQ7
T2 sequence (Q9UPQ7 244-349, limits assumed, looked up): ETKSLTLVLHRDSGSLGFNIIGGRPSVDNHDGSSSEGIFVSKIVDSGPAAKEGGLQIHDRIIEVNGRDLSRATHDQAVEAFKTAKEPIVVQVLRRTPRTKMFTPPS

FRMPD1, Q5SYB0 = biological target: T3, FRMPD1, Q5SYB0
T3 sequence (Q5SYB0 52-145, limits assumed, looked up): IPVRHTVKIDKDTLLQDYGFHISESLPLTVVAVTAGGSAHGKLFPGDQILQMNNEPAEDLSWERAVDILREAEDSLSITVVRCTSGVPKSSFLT

Inadl_1, Q8NI35 = biological target: Inadl_1, Q8NI35
SCRIB_3, Q14160 = biological target: SCRIB_3, Q14160
Inadl_4, Q8NI35 = biological target: Inadl_4, Q8NI35
TJP3_3, O95049 = biological target: T4, TJP3_3, O95049
T4 sequence (O95049 375-456, limits assumed, looked up): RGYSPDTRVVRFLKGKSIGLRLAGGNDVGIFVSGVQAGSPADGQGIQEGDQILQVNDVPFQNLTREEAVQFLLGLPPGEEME

NOS1, P29475 = biological target: NOS1, P29475
GIPC2, Q8TF65 = biological target: GIPC2, Q8TF65
GRIP1_5, Q9Y3R0 = biological target: T5, GRIP1_5, Q9Y3R0
T5 sequence (Q9Y3R0 568-668, limits assumed, looked up): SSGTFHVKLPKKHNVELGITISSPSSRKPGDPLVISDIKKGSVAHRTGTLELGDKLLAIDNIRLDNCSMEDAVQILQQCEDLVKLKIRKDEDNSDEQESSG

APBA1_1, Q02410 = biological target: T6, APBA1_1, Q02410
T6 sequence (Q02410 651-752, limits assumed, looked up): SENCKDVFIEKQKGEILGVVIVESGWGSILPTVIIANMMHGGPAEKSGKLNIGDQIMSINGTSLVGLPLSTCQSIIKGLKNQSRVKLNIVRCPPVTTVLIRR

DLG4_3, P78352 = biological target: DLG4_3, P78352
GRIP1_4, Q9Y3R0 = biological target: T7, GRIP1_4, Q9Y3R0
T7 sequence (Q9Y3R0 467-571, limits assumed, looked up): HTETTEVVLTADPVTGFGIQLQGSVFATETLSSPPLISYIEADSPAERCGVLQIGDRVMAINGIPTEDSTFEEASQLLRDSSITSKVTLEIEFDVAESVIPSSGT

MPDZ_10, O75970 = biological target: T8, MPDZ_10, O75970
T8 sequence (O75970 1624-1722, limits assumed, looked up): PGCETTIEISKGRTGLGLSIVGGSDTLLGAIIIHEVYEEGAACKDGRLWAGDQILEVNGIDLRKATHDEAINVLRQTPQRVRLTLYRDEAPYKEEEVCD

Inadl_3, Q8NI35 = biological target: Inadl_3, Q8NI35
MAGI2_4, Q86UL8 = biological target: MAGI2_4, Q86UL8
APBA1_2, Q02410 = biological target: T9, APBA1_2, Q02410
T9 sequence (Q02410 742-832, limits assumed, looked up): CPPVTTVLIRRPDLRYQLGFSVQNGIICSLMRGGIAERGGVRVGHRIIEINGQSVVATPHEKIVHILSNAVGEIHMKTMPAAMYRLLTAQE

GOPC, Q9HD26 = biological target: GOPC, Q9HD26
SCRIB_2, Q14160 = biological target: SCRIB_2, Q14160
DFNB31_2, Q9P202 = biological target: T10, DFNB31_2, Q9P202
T10 sequence (Q9P202 274-371, limits assumed, looked up): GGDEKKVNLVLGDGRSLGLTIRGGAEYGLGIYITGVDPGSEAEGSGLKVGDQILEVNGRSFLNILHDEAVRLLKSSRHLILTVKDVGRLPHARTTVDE

TIAM2, Q8IVF5 = biological target: T11, TIAM2, Q8IVF5
T11 sequence (Q8IVF5 885-986, limits assumed, looked up): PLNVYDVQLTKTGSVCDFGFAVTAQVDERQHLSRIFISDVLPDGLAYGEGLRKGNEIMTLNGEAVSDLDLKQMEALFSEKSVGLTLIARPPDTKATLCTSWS

NHERF4_1, Q86UT5-2 = biological target: NHERF4_1, Q86UT5-2
HTRA1, Q92743 = biological target: HTRA1, Q92743
Inadl_2, Q8NI35 = biological target: Inadl_2, Q8NI35
HTRA3, P83110 = biological target: T12, HTRA3, P83110
T12 sequence (P83110 354-453, limits assumed, looked up): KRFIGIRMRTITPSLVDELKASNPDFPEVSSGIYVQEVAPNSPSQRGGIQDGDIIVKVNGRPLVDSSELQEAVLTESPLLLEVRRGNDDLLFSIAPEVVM

[1] = plain residues with an end cap or a label only (N-terminal biotin on a linker: ahx)
[2] = plain residues with an end cap or a label only (N-terminal biotin on a linker: ttds)

Chain of GIPC2, Q8TF65 (Q8TF65 112-203): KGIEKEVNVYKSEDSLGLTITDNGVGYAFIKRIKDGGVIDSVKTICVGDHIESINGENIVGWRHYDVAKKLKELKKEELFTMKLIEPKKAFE
Chain of DLG4_3, P78352 (P78352 306-403): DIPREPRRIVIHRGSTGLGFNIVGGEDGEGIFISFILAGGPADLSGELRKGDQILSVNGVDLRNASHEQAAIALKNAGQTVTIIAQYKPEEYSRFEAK
Chain of Inadl_2, Q8NI35 (Q8NI35 238-335): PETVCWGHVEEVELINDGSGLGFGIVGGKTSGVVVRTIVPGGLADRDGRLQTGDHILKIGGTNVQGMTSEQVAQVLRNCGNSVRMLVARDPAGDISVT
Chain of Inadl_1, Q8NI35 (Q8NI35 113-229): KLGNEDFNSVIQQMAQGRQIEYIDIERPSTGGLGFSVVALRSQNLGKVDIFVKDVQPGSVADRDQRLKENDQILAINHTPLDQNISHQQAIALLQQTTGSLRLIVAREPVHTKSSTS
Chain of Inadl_4, Q8NI35 (Q8NI35 547-651): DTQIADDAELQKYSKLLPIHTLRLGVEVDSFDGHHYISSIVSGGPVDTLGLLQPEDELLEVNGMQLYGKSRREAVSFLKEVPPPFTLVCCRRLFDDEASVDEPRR
Chain of SCRIB_2, Q14160 (Q14160 857-960): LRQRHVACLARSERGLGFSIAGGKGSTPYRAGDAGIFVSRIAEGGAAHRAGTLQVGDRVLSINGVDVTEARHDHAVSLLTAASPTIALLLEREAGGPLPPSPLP
Chain of NHERF4_1, Q86UT5-2 (Q86UT5 other isoform, or with tags, fused parts or gaps): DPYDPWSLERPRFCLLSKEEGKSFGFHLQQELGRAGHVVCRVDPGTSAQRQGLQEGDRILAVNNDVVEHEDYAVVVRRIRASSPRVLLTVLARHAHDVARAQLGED
Chain of MAGI2_4, Q86UL8 (Q86UL8 772-865): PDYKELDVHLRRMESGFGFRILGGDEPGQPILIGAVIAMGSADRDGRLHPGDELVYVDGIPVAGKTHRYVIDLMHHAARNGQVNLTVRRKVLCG
Chain of TJP2_1, Q9UDY2 (Q9UDY2 24-128): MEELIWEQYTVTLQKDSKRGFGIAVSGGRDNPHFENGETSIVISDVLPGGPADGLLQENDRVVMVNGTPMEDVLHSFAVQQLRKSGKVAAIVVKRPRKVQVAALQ
Chain of Inadl_3, Q8NI35 (Q8NI35 359-469): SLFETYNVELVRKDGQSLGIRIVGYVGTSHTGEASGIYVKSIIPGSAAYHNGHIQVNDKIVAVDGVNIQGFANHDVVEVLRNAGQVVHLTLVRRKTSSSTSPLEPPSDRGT
Chain of NOS1, P29475 (P29475 9-101): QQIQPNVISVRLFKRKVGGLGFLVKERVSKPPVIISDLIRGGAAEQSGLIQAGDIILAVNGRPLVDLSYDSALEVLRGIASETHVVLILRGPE
Chain of HTRA1, Q92743 (Q92743 360-477): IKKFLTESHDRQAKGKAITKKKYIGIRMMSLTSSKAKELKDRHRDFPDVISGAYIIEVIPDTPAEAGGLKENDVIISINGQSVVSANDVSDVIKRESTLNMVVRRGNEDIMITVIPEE
Chain of SCRIB_3, Q14160 (Q14160 999-1103): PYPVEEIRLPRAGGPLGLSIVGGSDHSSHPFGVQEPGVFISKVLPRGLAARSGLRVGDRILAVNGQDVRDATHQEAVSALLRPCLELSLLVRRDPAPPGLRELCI

pKd (HTRA4, P83105; [1]): below the threshold
pKd (TJP2_1, Q9UDY2; [1]): below the threshold
pKd (PDZRN3_1, Q9UPQ7; [1]): below the threshold
pKd (FRMPD1, Q5SYB0; [1]): below the threshold
pKd (Inadl_1, Q8NI35; [1]): below the threshold
pKd (SCRIB_3, Q14160; [1]): below the threshold
pKd (Inadl_4, Q8NI35; [1]): below the threshold
pKd (TJP3_3, O95049; [1]): below the threshold
pKd (NOS1, P29475; [1]): below the threshold
pKd (GIPC2, Q8TF65; [1]): below the threshold
pKd (GRIP1_5, Q9Y3R0; [1]): below the threshold
pKd (APBA1_1, Q02410; [1]): below the threshold
pKd (DLG4_3, P78352; [1]): below the threshold
pKd (GRIP1_4, Q9Y3R0; [1]): below the threshold
pKd (MPDZ_10, O75970; [1]): below the threshold
pKd (Inadl_3, Q8NI35; [1]): below the threshold
pKd (MAGI2_4, Q86UL8; [1]): below the threshold
pKd (APBA1_2, Q02410; [1]): below the threshold
pKd (GOPC, Q9HD26; [1]): below the threshold
pKd (SCRIB_2, Q14160; [1]): below the threshold
pKd (DFNB31_2, Q9P202; [1]): below the threshold
pKd (TIAM2, Q8IVF5; [1]): below the threshold
pKd (NHERF4_1, Q86UT5-2; [1]): below the threshold
pKd (HTRA1, Q92743; [1]): below the threshold
pKd (Inadl_2, Q8NI35; [1]): below the threshold
pKd (HTRA3, P83110; [1]): below the threshold
B1: NHERF3, Q5T2W1 (peptide)
chain: SSSNSEDTEM

pKd (HTRA4, P83105; [2]): below the threshold
pKd (TJP2_1, Q9UDY2; [2]): below the threshold
pKd (PDZRN3_1, Q9UPQ7; [2]): 4.91
pKd (FRMPD1, Q5SYB0; [2]): below the threshold
pKd (Inadl_1, Q8NI35; [2]): below the threshold
pKd (SCRIB_3, Q14160; [2]): 5.05
pKd (Inadl_4, Q8NI35; [2]): below the threshold
pKd (TJP3_3, O95049; [2]): below the threshold
pKd (NOS1, P29475; [2]): 4.34
pKd (GIPC2, Q8TF65; [2]): 3.67
pKd (GRIP1_5, Q9Y3R0; [2]): below the threshold
pKd (APBA1_1, Q02410; [2]): below the threshold
pKd (DLG4_3, P78352; [2]): 3.84
pKd (GRIP1_4, Q9Y3R0; [2]): below the threshold
pKd (MPDZ_10, O75970; [2]): below the threshold
pKd (Inadl_3, Q8NI35; [2]): below the threshold
pKd (MAGI2_4, Q86UL8; [2]): below the threshold
pKd (APBA1_2, Q02410; [2]): 4.2
pKd (GOPC, Q9HD26; [2]): 3.86
pKd (SCRIB_2, Q14160; [2]): 4.86
pKd (DFNB31_2, Q9P202; [2]): below the threshold
pKd (TIAM2, Q8IVF5; [2]): below the threshold
pKd (NHERF4_1, Q86UT5-2; [2]): below the threshold
pKd (HTRA1, Q92743; [2]): 3.96
pKd (Inadl_2, Q8NI35; [2]): below the threshold
pKd (HTRA3, P83110; [2]): below the threshold
B2: DGKZ, Q13574 (peptide)
chain: IQREDQETAV

pKd (HTRA4, P83105; [1]): 3.97
pKd (TJP2_1, Q9UDY2; [1]): 4.45
pKd (PDZRN3_1, Q9UPQ7; [1]): below the threshold
pKd (FRMPD1, Q5SYB0; [1]): below the threshold
pKd (Inadl_1, Q8NI35; [1]): below the threshold
pKd (SCRIB_3, Q14160; [1]): 4.18
pKd (Inadl_4, Q8NI35; [1]): below the threshold
pKd (TJP3_3, O95049; [1]): below the threshold
pKd (NOS1, P29475; [1]): 3.66
pKd (GIPC2, Q8TF65; [1]): below the threshold
pKd (GRIP1_5, Q9Y3R0; [1]): below the threshold
pKd (APBA1_1, Q02410; [1]): below the threshold
pKd (DLG4_3, P78352; [1]): below the threshold
pKd (GRIP1_4, Q9Y3R0; [1]): below the threshold
pKd (MPDZ_10, O75970; [1]): 3.98
pKd (Inadl_3, Q8NI35; [1]): below the threshold
pKd (MAGI2_4, Q86UL8; [1]): 4.13
pKd (APBA1_2, Q02410; [1]): 4.87
pKd (GOPC, Q9HD26; [1]): 3.53
pKd (SCRIB_2, Q14160; [1]): 3.47
pKd (DFNB31_2, Q9P202; [1]): below the threshold
pKd (TIAM2, Q8IVF5; [1]): below the threshold
pKd (NHERF4_1, Q86UT5-2; [1]): below the threshold
pKd (HTRA1, Q92743; [1]): 4.43
pKd (Inadl_2, Q8NI35; [1]): below the threshold
pKd (HTRA3, P83110; [1]): 4.42
B3: RGS12, O14924 (peptide)
chain: KTSAHHATFV

pKd (HTRA4, P83105; [2]): 3.74
pKd (TJP2_1, Q9UDY2; [2]): below the threshold
pKd (PDZRN3_1, Q9UPQ7; [2]): 3.53
pKd (FRMPD1, Q5SYB0; [2]): below the threshold
pKd (Inadl_1, Q8NI35; [2]): below the threshold
pKd (SCRIB_3, Q14160; [2]): 5.21
pKd (Inadl_4, Q8NI35; [2]): below the threshold
pKd (TJP3_3, O95049; [2]): below the threshold
pKd (NOS1, P29475; [2]): below the threshold
pKd (GIPC2, Q8TF65; [2]): 3.75
pKd (GRIP1_5, Q9Y3R0; [2]): below the threshold
pKd (APBA1_1, Q02410; [2]): below the threshold
pKd (DLG4_3, P78352; [2]): below the threshold
pKd (GRIP1_4, Q9Y3R0; [2]): below the threshold
pKd (MPDZ_10, O75970; [2]): 3.71
pKd (Inadl_3, Q8NI35; [2]): 3.8
pKd (MAGI2_4, Q86UL8; [2]): 3.99
pKd (APBA1_2, Q02410; [2]): 3.86
pKd (GOPC, Q9HD26; [2]): 3.84
pKd (SCRIB_2, Q14160; [2]): 5.01
pKd (DFNB31_2, Q9P202; [2]): below the threshold
pKd (TIAM2, Q8IVF5; [2]): below the threshold
pKd (NHERF4_1, Q86UT5-2; [2]): below the threshold
pKd (HTRA1, Q92743; [2]): below the threshold
pKd (Inadl_2, Q8NI35; [2]): below the threshold
pKd (HTRA3, P83110; [2]): below the threshold
B4: ARHGEF16, Q5VV41 (peptide)
chain: MERLRVETDV

pKd (HTRA4, P83105; [2]): 3.48
pKd (TJP2_1, Q9UDY2; [2]): 3.49
pKd (PDZRN3_1, Q9UPQ7; [2]): 5.09
pKd (FRMPD1, Q5SYB0; [2]): below the threshold
pKd (Inadl_1, Q8NI35; [2]): 3.69
pKd (SCRIB_3, Q14160; [2]): 5.54
pKd (Inadl_4, Q8NI35; [2]): below the threshold
pKd (TJP3_3, O95049; [2]): below the threshold
pKd (NOS1, P29475; [2]): 3.77
pKd (GIPC2, Q8TF65; [2]): 3.88
pKd (GRIP1_5, Q9Y3R0; [2]): below the threshold
pKd (APBA1_1, Q02410; [2]): below the threshold
pKd (DLG4_3, P78352; [2]): 4.01
pKd (GRIP1_4, Q9Y3R0; [2]): below the threshold
pKd (MPDZ_10, O75970; [2]): below the threshold
pKd (Inadl_3, Q8NI35; [2]): 3.51
pKd (MAGI2_4, Q86UL8; [2]): 3.48
pKd (APBA1_2, Q02410; [2]): 3.93
pKd (GOPC, Q9HD26; [2]): 4.13
pKd (SCRIB_2, Q14160; [2]): 4.27
pKd (DFNB31_2, Q9P202; [2]): below the threshold
pKd (TIAM2, Q8IVF5; [2]): below the threshold
pKd (NHERF4_1, Q86UT5-2; [2]): 3.91
pKd (HTRA1, Q92743; [2]): 3.75
pKd (Inadl_2, Q8NI35; [2]): below the threshold
pKd (HTRA3, P83110; [2]): below the threshold
B5: ATP2B1, P20020 (peptide)
chain: SPLHSLETSL

Source: publication PMC9482650, “Quantitative fragmentomics allow affinity mapping of interactomes” (Nature Communications, 2022)
